Reference: patent publication US20110165265A1, “TRAIL VARIANTS FOR TREATING CANCER” (FUNDACIÓ GENÒMICA (CRG), priority 2007, published 2011)

Molecular target: death receptor 5 (DR5) on the cell surface (human) (UniProt O14763)
Test: cell-based or functional assay

wild-type TRAIL (recombinant human soluble TRAIL, amino acids 114-281) (from UniProt P50591 114-281) (ligand)
TRAIL-mediated death of Colo205 cells in the presence of neutralizing anti-DR5 antibody: 3 fold | incubation time of Colo205 cells with 30 ng/ml ligand needed for a comparable level of pro-caspase-8 processing (Western blot): 60 min
